Reference: PMC7423924, “A fluorogenic cyclic peptide for imaging and quantification of drug-induced apoptosis” (Nature Communications, 2020)
Where “and” joins values, the source holds several entries; their conditions need not be identical. Identical values can stand only once.

Tested on: neutrophils (myeloid)
Assay: Flow cytometry staining before and after induction of apoptosis, neutrophils
Type: cell-based, human
Conditions: single replicates, listed as Ann V
Procedure: Fig. 2 Apo-15 binds to apoptotic cells of different origin in multiple environments. a Representative fluorescence confocal microscopy images (from three independent experiments) human apoptotic (yellow arrows) and viable (white arrows) cells from different lineages: BL-2 (lymphoid), neutrophils (myeloid), and primary airway epithelial cells (epithelial). Cells were incubated with Apo-15 (100 nM, green), AF647-Annexin V (5 nM, red), and Hoechst 33342 (7 μM, blue) for 10 min and imaged under a fluorescence confocal microscope (λexc.: 405, 488, 633 nm: λem.: 450, 525, 670 nm). Scale bars: 10 µm. b Divalent cation-independent binding of Apo-15 to apoptotic cells of different origin (top plots: lymphoid cells, bottom plots: myeloid cells). Mixtures of apoptotic (highlighted in green dots) and viable cells (highlighted in black dots) were stained with AF647-Annexin V (25 nM) and Apo-15 (100 nM) in the presence of 2 mM CaCl2 (left) or 2.5 mM EDTA (right). Representative histograms showing Apo-15 binding (x-axis) vs AF647-Annexin V binding (y-axis) acquired on 5L LSR flow cytometer (n = 5). c Cells were sorted on their Apo-15 positivity (green populations in panel b) or negativity (black populations in panel b). Gating strategy in Supplementary Fig. 7. Morphological analysis (four independent images from two independent experiments) of cytocentrifuge preparations of Apo-15-positive and Apo-15-negative cells under brightfield microscopy (scale bar: 10 µm). d Quantification of fluorescence staining of neutrophils (myeloid, n ≥ 5), BL-2 cells (lymphoid, n ≥ 3) and primary airway epithelial cells (epithelial, n = 5) before and after induction of apoptosis and upon treatment with Apo-15 and AF647-Annexin V. Data acquired on 5 L LSR flow cytometer and presented as mean values ± SEM. P values obtained from two-tailed t tests. Source data (in d) are provided as a Source data file. […]
Work with human peripheral blood leukocytes complied with all relevant ethical regulations and informed consent was obtained. […]

B1: Annexin V: fluorescently-labeled (AF647) annexin V, PS-binding protein (protein, UniProt P08758 2-320, looked up)
Annexin A5: AQVLRGTVTDFPGFDERADAETLRKAMKGLGTDEESILTLLTSRSNAQRQEISAAFKTLFGRDLLDDLKSELTGKFEKLIVALMKPSRLYDAYELKHALKGAGTNEKVLTEIIASRTPEELRAIKQVYEEEYGSSLEDDVVGDTSGYYQRMLVVLLQANRDPDAGIDEAQVEQDAQALFQAGELKWGTDEEKFITIFGTRSVSHLRKVFDKYMTISGFQIEETIDRETSGNLEQLLLAVVKSIRSIPAYLAETLYYAMKGAGTDDHTLIRVMVSRSEIDLFNIRKEFRKNFATSLYSMIKGDTSGDYKKALLLLCGEDD
modifications: AF647 label
Neutrophils 0 h, before induction of apoptosis
  Stained cells (flow cytometry): 2.6% and 3.7% and 2.0% and 1.4% and 1.1%
Neutrophils 18 h, EDTA (2.5 mM)
  Stained cells (flow cytometry): 0.0% and 0.5%
Neutrophils after 18 h culture at 37 °C
  Stained cells (flow cytometry): 51.9% and 32% and 59.2% and 56.9% and 54.7% and 56.2% and 68% and 42.1% and 61.5% and 44.8% and 31.8% and 64.6% and 60.9% and 43.7% and 65.3% and 57.6% and 48% and 40.7% and 35.2% and 65.8% and 72.2% and 52.7% and 70.5% and 46.6%
